Where a chain is given by its changes, count along the chain named.

Sequences and labels used below:
B1: 3E2.1_GS_4G8.5 (bispecific antibody, human IgG1, kappa, L234A L235A)
heavy: EVQLVQSGAEVKKPGSSVKVSCKASGYTFTESYMYWVKQAPGQGLELIGRIDPEDGSTDYVEKFKNKATLTADKSTSTAYMELSSLRSEDTAVYFCARFGARSYFYPMDAWGQGTTVTVSSGGGGSGGGGSEIQLVQSGSELKKPGASVKVSCKASGYTFTNYGMYWVRQAPGQGLEYMGWINTETGKPTYADDFKGRFVFSLDTSVSTAYLQISSLKAEDTAVYFCARTNYYYRSYIFYFDYWGQGTMVTVSSASTKGPSVFPLAPSSKSTSGGTAALGCLVKDYFPEPVTVSWNSGALTSGVHTFPAVLQSSGLYSLSSVVTVPSSSLGTQTYICNVNHKPSNTKVDKKVEPKSCDKTHTCPPCPAPEAAGGPSVFLFPPKPKDTLMISRTPEVTCVVVDVSHEDPEVKFNWYVDGVEVHNAKTKPREEQYNSTYRVVSVLTVLHQDWLNGKEYKCKVSNKALPAPIEKTISKAKGQPREPQVYTLPPSREEMTKNQVSLTCLVKGFYPSDIAVEWESNGQPENNYKTTPPVLDSDGSFFLYSKLTVDKSRWQQGNVFSCSVMHEALHNAYTQKSLSLSPGK
light: ETVLTQSPATLSLSPGERATLSCRASESVSTLMHWYQQKPGQQPRLLIYGASNLESGVPARFSGSGSGTDFTLTISSLEPEDFAVYFCQQSWNDPWTFGGGTKVEIKGGSGGGGSGGATQLTQSPSLSASVGDRVTITCRASESVSTHMHWYQQKPGKQPKLLIYGASNLESGVPSRFSGSGSGTDFTLTISSLQPEDFATYFCQQSWNDPFTFGQGTKLEIKRTVAAPSVFIFPPSDEQLKSGTASVVCLLNNFYPREAKVQWKVDNALQSGNSQESVTEQDSKDSTYSLSSTLTLSKADYEKHKVYACEVTHQGLSSPVTKSFNRGEC
B2: 1E3.4_GS_3E2.1 (bispecific antibody, human IgG1, kappa, L234A L235A)
heavy: EIQLVQSGSELKKPGASVKVSCKASGYPFTNSGMYWVKQAPGQGLEYMGWINTEAGKPTYADDFKGRFVFSLDTSVSTAYLQISSLKAEDTAVYFCARWGYISDNSYGWFDYWGQGTLVTVSSGGGGSGGGGSEVQLVQSGAEVKKPGSSVKVSCKASGYTFTESYMYWVKQAPGQGLELIGRIDPEDGSTDYVEKFKNKATLTADKSTSTAYMELSSLRSEDTAVYFCARFGARSYFYPMDAWGQGTTVTVSSASTKGPSVFPLAPSSKSTSGGTAALGCLVKDYFPEPVTVSWNSGALTSGVHTFPAVLQSSGLYSLSSVVTVPSSSLGTQTYICNVNHKPSNTKVDKKVEPKSCDKTHTCPPCPAPEAAGGPSVFLFPPKPKDTLMISRTPEVTCVVVDVSHEDPEVKFNWYVDGVEVHNAKTKPREEQYNSTYRVVSVLTVLHQDWLNGKEYKCKVSNKALPAPIEKTISKAKGQPREPQVYTLPPSREEMTKNQVSLTCLVKGFYPSDIAVEWESNGQPENNYKTTPPVLDSDGSFFLYSKLTVDKSRWQQGNVFSCSVMHEALHNAYTQKSLSLSPGK
light: ATQLTQSPSSLSASVGDRVTISCRASEGVYSYMHWYQQKPGKQPKLLIYKASNLASGVPSRFSGSGSGTDFTLTISSLQPEDFATYFCHQNWNDPLTFGQGTKLEIKGGSGGGGSGGETVLTQSPATLSLSPGERATLSCRASESVSTLMHWYQQKPGQQPRLLIYGASNLESGVPARFSGSGSGTDFTLTISSLEPEDFAVYFCQQSWNDPWTFGGGTKVEIKRTVAAPSVFIFPPSDEQLKSGTASVVCLLNNFYPREAKVQWKVDNALQSGNSQESVTEQDSKDSTYSLSSTLTLSKADYEKHKVYACEVTHQGLSSPVTKSFNRGEC
B3: CL-33675_GS_1B10.1 (bispecific antibody, human IgG1, kappa, L234A L235A)
heavy: EVTLRESGPALVKPTQTLTLTCTFSGFSLSTYGMGVGWIRQPPGKALEWLANIWWDDDKYYNPSLKNRLTISKDTSKNQVVLTMTNMDPVDTATYYCARIESSGPKYSFDYWGQGTMVTVSSGGGGSGGGGSEVQLVESGGGLVQPGGSLRLSCAASGFSFSKYDMAWFRQAPGKGLEWVASITTSGVGTYYRDSVKGRFTVSRDNAKSTLYLQMNSLRAEDTAVYYCARGYGAMDAWGQGTTVTVSSASTKGPSVFPLAPSSKSTSGGTAALGCLVKDYFPEPVTVSWNSGALTSGVHTFPAVLQSSGLYSLSSVVTVPSSSLGTQTYICNVNHKPSNTKVDKKVEPKSCDKTHTCPPCPAPEAAGGPSVFLFPPKPKDTLMISRTPEVTCVVVDVSHEDPEVKFNWYVDGVEVHNAKTKPREEQYNSTYRVVSVLTVLHQDWLNGKEYKCKVSNKALPAPIEKTISKAKGQPREPQVYTLPPSREEMTKNQVSLTCLVKGFYPSDIAVEWESNGQPENNYKTTPPVLDSDGSFFLYSKLTVDKSRWQQGNVFSCSVMHEALHNAYTQKSLSLSPGK
light: EIVLTQSPGTLSLSPGERATLSCRASSGSIWYSFVSWYQQKPGQAPRLLIYADDQRASGIPDRFSGSGSGTDFTLTISRLEPEDFAVYYCQSYGINIDVVFGGGTKVEIKGGSGGGGSGGDIQMTQSPSSLSASVGDRVTITCKASQDIDDYLSWYQQKPGKSPKLVIYAATRLADGVPSRFSGSGSGTDYTLTISSLQPEDFATYYCLQSSSTPWTFGGGTKVEIKRTVAAPSVFIFPPSDEQLKSGTASVVCLLNNFYPREAKVQWKVDNALQSGNSQESVTEQDSKDSTYSLSSTLTLSKADYEKHKVYACEVTHQGLSSPVTKSFNRGEC
B4: CL-33675_GS_4G8.5 (bispecific antibody, human IgG1, kappa, L234A L235A)
heavy: EVTLRESGPALVKPTQTLTLTCTFSGFSLSTYGMGVGWIRQPPGKALEWLANIWWDDDKYYNPSLKNRLTISKDTSKNQVVLTMTNMDPVDTATYYCARIESSGPKYSFDYWGQGTMVTVSSGGGGSGGGGSEIQLVQSGSELKKPGASVKVSCKASGYTFTNYGMYWVRQAPGQGLEYMGWINTETGKPTYADDFKGRFVFSLDTSVSTAYLQISSLKAEDTAVYFCARTNYYYRSYIFYFDYWGQGTMVTVSSASTKGPSVFPLAPSSKSTSGGTAALGCLVKDYFPEPVTVSWNSGALTSGVHTFPAVLQSSGLYSLSSVVTVPSSSLGTQTYICNVNHKPSNTKVDKKVEPKSCDKTHTCPPCPAPEAAGGPSVFLFPPKPKDTLMISRTPEVTCVVVDVSHEDPEVKFNWYVDGVEVHNAKTKPREEQYNSTYRVVSVLTVLHQDWLNGKEYKCKVSNKALPAPIEKTISKAKGQPREPQVYTLPPSREEMTKNQVSLTCLVKGFYPSDIAVEWESNGQPENNYKTTPPVLDSDGSFFLYSKLTVDKSRWQQGNVFSCSVMHEALHNAYTQKSLSLSPGK
light: EIVLTQSPGTLSLSPGERATLSCRASSGSIWYSFVSWYQQKPGQAPRLLIYADDQRASGIPDRFSGSGSGTDFTLTISRLEPEDFAVYYCQSYGINIDVVFGGGTKVEIKGGSGGGGSGGATQLTQSPSLSASVGDRVTITCRASESVSTHMHWYQQKPGKQPKLLIYGASNLESGVPSRFSGSGSGTDFTLTISSLQPEDFATYFCQQSWNDPFTFGQGTKLEIKRTVAAPSVFIFPPSDEQLKSGTASVVCLLNNFYPREAKVQWKVDNALQSGNSQESVTEQDSKDSTYSLSSTLTLSKADYEKHKVYACEVTHQGLSSPVTKSFNRGEC
B5: hBDI-9E8.12 (antibody, V domains shown)
VH: EVQLVESGGGLVQPGGSLRLSCAFSGFSLSTYGMGVGWIRQAPGKGLEWLANIWWDDDKYYNPSLKNRLTISKDTSKNQAYLQINSLRAEDTAVYYCARIESIGTTYSFDYWGQGTLVTVSS
VL: DFQLTQSPSSLSASVGDRVTITCERSSGDIGDSYVSWYQQKPGKAPKNVIYADDQRPSGVPSRFSGSGSGNSASLTISSLQPEDFATYYCQSYDINIDIVFGQGTKVEIK
B6: hBDI-9E8.1 (antibody, V domains shown)
VH: EVTLRESGPALVKPTQTLTLTCTFSGFSLSTYGMGVGWIRQPPGKALEWLANIWWDDDKYYNPSLKNRLTISKDTSKNQVVLTMTNMDPVDTATYYCARIESIGTTYSFDYWGQGTMVTVSS
VL: NFMLTQPHSVSESPGKTVTISCERSSGDIGDSYVSWYQQRPGSSPTTVIYADDQRPSGVPDRFSGSIDSSSNSASLTISGLKTEDEADYYCQSYDINIDIVFGGGTKLTVL
B7: hBDI-9E8.4 half body (other)
VH: B6 VH
VL: EFVLTQSPGTLSLSPGERATLSCERSSGDIGDSYVSWYQQKPGQAPRLVIYADDQRPSGIPDRFSGSGSGTDFTLTISRLEPEDFAVYYCQSYDINIDIVFGGGTKVEIK
B8: hBDI-9E8.9 (antibody, V domains shown)
VH: B6 VH with V80A, M84I, M117T
VL: DFVLTQSPDSLAVSLGERATINCERSSGDIGDSYVSWYQQKPGQPPKNVIYADDQRPSGVPDRFSGSGSGNSASLTISSLQAEDVAVYFCQSYDINIDIVFGGGTKVEIK
B9: hBDI-9E8.3 (antibody, V domains shown)
VH: B6 VH
VL: B7 VL with F2I, V49L
B10: hBDI-9E8.10 (antibody, V domains shown)
VH: B6 VH with V80A, M84I, M117T
VL: B5 VL
B11: hBDI-9E8.2 (antibody, V domains shown)
VH: B6 VH
VL: B6 VL with S44P, T47N, Y90F
B12: hBDI-9E8.6 (antibody, V domains shown)
VH: B6 VH with A46G, V80A, M84I
VL: B6 VL with S44P, T47N, Y90F
B13: hBDI-9E8.7 (antibody, V domains shown)
VH: B6 VH with A46G, V80A, M84I
VL: B7 VL with F2I, V49L
B14: hBDI-9E8.5 (antibody, V domains shown)
VH: B6 VH with A46G, V80A, M84I
VL: B6 VL
B15: hBDI-9E8.8 (antibody, V domains shown)
VH: B6 VH with A46G, V80A, M84I
VL: B7 VL

The target in one assay is recombinant human VEGF165 (human, UniProt P15692 207-395). Briefly: cell-based or functional assay.
Sequence of recombinant human VEGF165 (P15692 other isoform, or with tags, fused parts or gaps limits assumed): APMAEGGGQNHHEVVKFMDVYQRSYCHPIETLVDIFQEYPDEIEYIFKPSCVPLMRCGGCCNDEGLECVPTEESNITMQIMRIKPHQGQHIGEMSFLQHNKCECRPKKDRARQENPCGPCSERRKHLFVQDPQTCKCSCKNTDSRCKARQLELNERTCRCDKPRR
B1: the “Potency IC50 (nM) HMVEC-d hVEGF165” value stood at 0.743 nM.
Take B2: the “Potency IC50 (nM) HMVEC-d hVEGF165” value was 0.043 nM.
For the molecule B3, the “Potency IC50 (nM) HMVEC-d hVEGF165” value turned out to be 0.265 nM.
On to B4, for which the “Potency IC50 (nM) HMVEC-d hVEGF165” value amounted to 0.219 nM.

The target of the next assay is recombinant human PDGF-BB (human, UniProt P01127 82-190). Briefly: cell-based or functional assay.
Target sequence in this assay (P01127 82-190 limits assumed): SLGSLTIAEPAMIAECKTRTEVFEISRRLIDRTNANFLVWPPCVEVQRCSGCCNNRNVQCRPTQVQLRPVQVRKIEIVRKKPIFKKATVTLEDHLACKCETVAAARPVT
In the case of B1, the “Potency IC50 (nM) NIH-3T3 hPDGF-BB” value amounted to 0.38 nM.
With B2, the “Potency IC50 (nM) NIH-3T3 hPDGF-BB” value came to 6.25 nM.
Regarding B3, the “Potency IC50 (nM) NIH-3T3 hPDGF-BB” value is 0.11 nM.
On to B4, for which the “Potency IC50 (nM) NIH-3T3 hPDGF-BB” value was 0.035 nM.

A further assay has the same target. Briefly: cell-based or functional assay. The source holds these as a separate data set.
Target sequence in this assay (P01127 82-190 limits assumed): as above
Regarding B5, the “hPDGF-BB IC50 (nM), hPDGF-BB-induced NIH-3T3 cell proliferation” value (“hPDGF-BB IC50 (nM)” for short) came to 0.525 nM.
In the case of B6, the “hPDGF-BB IC50 (nM)” value is more than 5 nM.
Regarding B7, the “hPDGF-BB IC50 (nM)” value was more than 5 nM.
B8: the “hPDGF-BB IC50 (nM)” value was determined as 0.574 nM.
With B9, the “hPDGF-BB IC50 (nM)” value amounted to 1.58 nM.
The same measure, in the same setting: next, B10: 0.562 nM.
With B11, the “hPDGF-BB IC50 (nM)” value is more than 5 nM.
With B12, the “hPDGF-BB IC50 (nM)” value was more than 5 nM.
B13: the “hPDGF-BB IC50 (nM)” value worked out at 0.35 nM.
For B14, the “hPDGF-BB IC50 (nM)” value was more than 5 nM.
In the case of B15, the “hPDGF-BB IC50 (nM)” value is 0.105 nM.
